B1: TPR t1 (parent)
chain: GACCAAUCUGCCCUCAGAGCUCGAGAACAUCUUCGGAUGCAGAGGAGGCAGGCUUCGGUGGCGCGAUAGCGCCAACGUCCUCAACCUCCAAUGCAUCCCACCACAUGAUGAUGCCUGAAGAGCCUUGGUUUUUUG

This data set covers variants of B1. Kind of data set: polymerase ribozyme fitness, log enrichment relative to wild type (log ratio); higher = more active; in vitro selection for triplet polymerase activity. In outline: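 Input and output libraries were sequenced on Illumina after a single in vitro selection round, run in triplicate on PCR-built, transcribed mutant libraries of each subunit of a heterodimeric triplet polymerase ribozyme. Selection annealed libraries to a biotinylated primer, the partner subunit and triplets, incubated them frozen at −7 °C, then gel-excised extended constructs for streptavidin-bead capture and RT-PCR. Genotypes with ≥10 input reads and ≥1 read per output were kept. Fitness is the logarithm, taken in base 2, of genotype enrichment divided by wild-type enrichment, using inverse-variance-weighted replicate averages.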
Turning to A83G G113U, the “polymerase ribozyme fitness (log ratio)” value was -3.23.

Take A83U U96A: the “polymerase ribozyme fitness (log ratio)” value is -0.525. Under C88G A111C stands 0.0984; under C89A C104A, -4.02.

Regarding A84C U96C A121G U125A, the “polymerase ribozyme fitness (log ratio)” value is 1.66. Under C86U U112C stands 0.942; under C86U U112G, 0.18; under U87A A111U, -2.69. For A83U A100U C123U U125G, the “polymerase ribozyme fitness (log ratio)” value stood at 0.186. For A83U A95G C104G A105C C115A G117U, the “polymerase ribozyme fitness (log ratio)” value was -5.76.

Consider C85G G122A, for which the “polymerase ribozyme fitness (log ratio)” value is -1.82.

On to C85G C88A C101U C124U, for which the “polymerase ribozyme fitness (log ratio)” value is -0.871. For the variant C88G C114U, the “polymerase ribozyme fitness (log ratio)” value is -1.84. For the variant A83G A118U, the “polymerase ribozyme fitness (log ratio)” value stood at 0.587. As to C88G A95C, the “polymerase ribozyme fitness (log ratio)” value is -4.58. Consider U87A U130A, for which the “polymerase ribozyme fitness (log ratio)” value is -0.662. On to C85G C88A C101A, for which the “polymerase ribozyme fitness (log ratio)” value was -2.28. With A84U C102U, the “polymerase ribozyme fitness (log ratio)” value was -2. Regarding C86U U92C C115A C124A G127A, the “polymerase ribozyme fitness (log ratio)” value is -1.31. Consider C88U G110A, for which the “polymerase ribozyme fitness (log ratio)” value is -1.46. Turning to C85A U87G G120U, the “polymerase ribozyme fitness (log ratio)” value is -0.802. For the variant C89A U125A, the “polymerase ribozyme fitness (log ratio)” value is -1.17. As for A84G C85A G127U, the “polymerase ribozyme fitness (log ratio)” value is -5.16. For C85A C99U G113A, the “polymerase ribozyme fitness (log ratio)” value was -4.82. Under C89A U106A G113C C123G stands -1.57. For the variant U87A G93C, the “polymerase ribozyme fitness (log ratio)” value is -1.3.

Turning to A84U G135U, the “polymerase ribozyme fitness (log ratio)” value is -1.03.

Take C86A U129A: the “polymerase ribozyme fitness (log ratio)” value was -2.31. With C89A G117A A121U, the “polymerase ribozyme fitness (log ratio)” value is -0.932. Next, U87G A111C: 1.16; C89A U92G U116G: -5.83; C85A C88U U96G G113U: -5.67. Regarding C85A C101G, the “polymerase ribozyme fitness (log ratio)” value was -3.91. Turning to U87A U92G G93U C104A A111G C114U U130C, the “polymerase ribozyme fitness (log ratio)” value was -7.15. Next, C85A G127U: -4.56. Regarding C85A G127C, the “polymerase ribozyme fitness (log ratio)” value was -4.59. Take U87A C89A A91C A95G G113C: the “polymerase ribozyme fitness (log ratio)” value was -2.9. For C86A A103U, the “polymerase ribozyme fitness (log ratio)” value is -4.95. As for C88U U92A, the “polymerase ribozyme fitness (log ratio)” value was -2.45. Consider C86A C99U C101U A121G G122U, for which the “polymerase ribozyme fitness (log ratio)” value was -1.38. Turning to C85U U109A A121G, the “polymerase ribozyme fitness (log ratio)” value was -4.29.

C88A U112A: the “polymerase ribozyme fitness (log ratio)” value is -0.232. In the case of C85G G120A, the “polymerase ribozyme fitness (log ratio)” value is -1.01. As for C86A U87A, the “polymerase ribozyme fitness (log ratio)” value was -2.7. Next, A83G U92C C94A: -4.59. Regarding C85G C102U G113U G117A G120C, the “polymerase ribozyme fitness (log ratio)” value is -5.52.

Regarding C89A C123A, the “polymerase ribozyme fitness (log ratio)” value is -1.82. Regarding C86U G117C, the “polymerase ribozyme fitness (log ratio)” value is -3.53.

A84U C88G C115U U126A: the “polymerase ribozyme fitness (log ratio)” value is -3.84. Regarding A84G C88U C124U, the “polymerase ribozyme fitness (log ratio)” value was 0.679.

As to U87A C88G, the “polymerase ribozyme fitness (log ratio)” value was -1.1. C86G U133A: the “polymerase ribozyme fitness (log ratio)” value is -0.824. With C86A U92A C115A C123G, the “polymerase ribozyme fitness (log ratio)” value is -2.27.

On to A83U A91U U92G A111C U130C, for which the “polymerase ribozyme fitness (log ratio)” value was -3.89. With C86G C102A, the “polymerase ribozyme fitness (log ratio)” value is -3.09.

On to C88G U125G, for which the “polymerase ribozyme fitness (log ratio)” value was -1.44.

With C88A C101G A119U, the “polymerase ribozyme fitness (log ratio)” value was -3.66. Turning to C86A G113C, the “polymerase ribozyme fitness (log ratio)” value is -3.02. Take C85A C114G: the “polymerase ribozyme fitness (log ratio)” value was -4.62. Consider U87A G128U, for which the “polymerase ribozyme fitness (log ratio)” value was -2.2. As for A84U G110C, the “polymerase ribozyme fitness (log ratio)” value is -4.16.

Take A83G U129G: the “polymerase ribozyme fitness (log ratio)” value was -1.68. Next, A83U C88U C101A: -1.52; C85G U112A U126A: -1.28; C85A U106A U125A: -3.11. As for C88A U130G, the “polymerase ribozyme fitness (log ratio)” value was -1.33. Regarding C88A U130A, the “polymerase ribozyme fitness (log ratio)” value was -2.14.

On to C89A G135U, for which the “polymerase ribozyme fitness (log ratio)” value was -2.26. Regarding A84U U96A C99G C114A, the “polymerase ribozyme fitness (log ratio)” value was -6.17. For the variant C85G C89U G110U, the “polymerase ribozyme fitness (log ratio)” value was -2.09.

On to C89A U96A C115A, for which the “polymerase ribozyme fitness (log ratio)” value is -2.16. As for C88U C101U U106G C123A, the “polymerase ribozyme fitness (log ratio)” value was -1.23.

With C85A C97A, the “polymerase ribozyme fitness (log ratio)” value is -7.29.

For C86G G113C, the “polymerase ribozyme fitness (log ratio)” value is -2.62. As for C86G G113U, the “polymerase ribozyme fitness (log ratio)” value was -3.98. For A83U A108U, the “polymerase ribozyme fitness (log ratio)” value was -5.5.

In the case of A84C G120A, the “polymerase ribozyme fitness (log ratio)” value stood at 0.816.

For C85G G113U, the “polymerase ribozyme fitness (log ratio)” value is -4.31.

For the variant C85U U116A G120C, the “polymerase ribozyme fitness (log ratio)” value is -1.14. Take C86U C104U: the “polymerase ribozyme fitness (log ratio)” value is -0.296. Regarding A84G G113U, the “polymerase ribozyme fitness (log ratio)” value was -2.8. In the case of C85A G113U, the “polymerase ribozyme fitness (log ratio)” value was -3.47.

In the case of C86G U112C, the “polymerase ribozyme fitness (log ratio)” value was -1.94.

The record behind these values is the RNAGym collection of RNA variant scans (doi:10.1073/pnas.2313332121).
